Patent publication US9605283B2, “Microorganism modified for the production of 1,3-propanediol” (INSTITUT NATIONAL DES SCIENCES APPLIQUÉES, priority 2012, dated 2017)

Test: PDO dehydrogenase activity (PDO-dependent reduction of NADP)
Type: biochemical
Conditions: 100 mM 1,3-propanediol, 10 mM NADP, 37° C., pH 8
Procedure: PDO dehydrogenase activity was assayed by following the PDO-dependent reduction of NADP. 1,3-propanediol+NADP^+→3-hydroxypropional+NADPH Reaction scheme:
Reactions were started by adding 100 mM 1,3-propanediol (PDO, Sigma).

B1: Ec-YqhD: alcohol dehydrogenase yqhD from Escherichia coli, used as PDO dehydrogenase (protein, UniProt Q46856 1-387, looked up)
NADPH-dependent aldehyde …: MNNFNLHTPTRILFGKGAIAGLREQIPHDARVLITYGGGSVKKTGVLDQVLDALKGMDVLEFGGIEPNPAYETLMNAVKLVREQKVTFLLAVGGGSVLDGTKFIAAAANYPENIDPWHILQTGGKEIKSAIPMGCVLTLPATGSESNAGAVISRKTTGDKQAFHSAHVQPVFAVLDPVYTYTLPPRQVANGVVDAFVHTVEQYVTKPVDAKIQDRFAEGILLTLIEDGPKALKEPENYDVRANVMWAATQALNGLIGAGVPQDWATHMLGHELTAMHGLDHAQTLAIVLPALWNEKRDTKRAKLLQYAERVWNITEGSDDERIDAAIAATRNFFEQLGVPTHLSDYGLDGSSIPALLKKLEEHGMTQLGENHDITLDVSRRIYEAAR
B1 showed a PDO dehydrogenase activity of 0.15 µmol/min/mg.
